# In article PMC5663973:
# Molecular target: DHR2 domain of human DOCK5 (residues I1212-L1642) (human)
# Assay: SEC-SAXS; unbound DOCK5^DHR2 at 80 μM; BioSEC-3 column; 20 mM Tris pH 8.0, 150 mM NaCl, 0.5 mM EDTA; 295 K
substance,measurement,value
DHR2 domain of human DOCK5 (residues I1212-L1642) (domain or fragment),stoichiometry N,2
